Test results published in paper PMC6058786 (Haematologica, 2018).
One block for each binder: values may come before it.

Legend:
purified Pin1 WW-domain [1] = target: T1, purified Pin1 WW-domain (UniProt Q13526 5-39); assay: NMR titration
purified Pin1 WW-domain [2] = target: T1, purified Pin1 WW-domain; assay: ITC
purified Pin1 WW-domain [3] = target: T1, purified Pin1 WW-domain; assay: ITC; remark: listed apart in the source

T1 sequence (Q13526 5-39): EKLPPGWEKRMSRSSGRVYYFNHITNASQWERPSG

Kd (purified Pin1 WW-domain [1]): 133 ± 13 µM
Binder: HKCRKAGVGQSWKENSPLNVS (not fully specified; phosphoserine at 253; phosphoserine at 258) [double phosphorylated pSer253/pSer258 TFCD peptide]

Kd (purified Pin1 WW-domain [2]): ~137 µM
Binder: HKCRKAGVGQSWKENSPLNVS (not fully specified; phosphoserine at 258) [Ser258-phosphorylated TFCD-encoding peptide (ITC)]

Kd (purified Pin1 WW-domain [3]): 1530 µM
Binder: HKCRKAGVGQSWKENSPLNVS [unphosphorylated TFCD (ITC)]
